Experimental findings from patent US20190309033A1 (Eli Lilly, published 2019) are described below.

Experiment [1] has as its target T1, HIS-tagged human GFRAL ECD (human, UniProt Q6UXV0 20-338).
T1 construct: Produced in CHOK1 cell derivatives; also called Human GFRAL ECD (D1-D2-D3-ECD) Receptor; soluble human GFRAL extracellular domain
T1 sequence: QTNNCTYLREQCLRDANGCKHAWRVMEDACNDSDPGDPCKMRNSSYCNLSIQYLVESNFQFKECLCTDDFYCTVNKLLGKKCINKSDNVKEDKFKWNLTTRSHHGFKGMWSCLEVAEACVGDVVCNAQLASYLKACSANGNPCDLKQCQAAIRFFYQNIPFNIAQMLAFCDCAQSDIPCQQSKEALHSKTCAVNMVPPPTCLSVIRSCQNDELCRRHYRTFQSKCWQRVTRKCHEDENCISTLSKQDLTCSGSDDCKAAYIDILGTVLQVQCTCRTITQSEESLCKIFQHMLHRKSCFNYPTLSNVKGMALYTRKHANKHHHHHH
The experiment in a line: SPR, Biacore T200, 25 C; compound captured by immobilized anti-GDF15 antibody, GFRAL ECD as analyte; 1:1 fit. The procedure:
To measure human GDF15 (des-ARN SEQ ID NO:1) or Compound 2 binding to human GFRAL ECD, a Biacore T200 Instrument is used to measure the binding kinetics of human GDF15 homodimer (des-ARN SEQ ID NO:1) and Compound 2 to the GFRAL ECD. Measurements are performed at 25° C. Samples are dissolved in HBS-EP+, pH 7.4 (GE Healthcare; 10 mM HEPES pH 7.4+150 mM NaCl+3 mM EDTA+0.05% surfactant P20). Goat […] GDF15 antibody (R&D) is immobilized on the flow cells of a CM5 sensor chip using amine coupling chemistry. GDF15 samples are prepared at 25 μg/ml by dilution into running buffer.
Human GFRAL ECD samples are prepared at final concentrations of 1000, 500, 250, 125, 62.5, 31.3, 15.6, 7.8, 3.9, 2.0 and 0 (blank) nM by dilution into running buffer. The SPR experiment includes the following steps: (1) capturing GDF15 samples on separate flow cells (Fc2, Fc3 and Fc4), (2) injecting 200 μl of human GFRAL ECD over all flow cells at […], (3) dissociating for 600 sec, (4) regenerating chip surfaces with a 10 μl (30 sec) injection of glycine, pH 1.5, at […], and (5) equilibrating chip surfaces with a 10 μl (30 sec) injection of HBS-EP+ at […]. Each concentration of human GFRAL ECD is injected in duplicate.
Data are processed using standard double-referencing and fit to a 1:1 binding model using Biacore T200 Evaluation Software to determine the association rate (kₒₙ, M⁻¹s⁻¹), dissociation rate (koff, s⁻¹) and maximum response (Rmax; response units (RU)). The equilibrium dissociation constant (KD) is calculated from the relationship KD=koff/kₒₙ (M).

Experiment [2] addresses T2, human GFRAL (NCBI Ref. Sequence No. NP_997293.2) expressed on HEK293 cells with human RET51 (human, UniProt Q6UXV0 19-394).
T2 sequence (looked up): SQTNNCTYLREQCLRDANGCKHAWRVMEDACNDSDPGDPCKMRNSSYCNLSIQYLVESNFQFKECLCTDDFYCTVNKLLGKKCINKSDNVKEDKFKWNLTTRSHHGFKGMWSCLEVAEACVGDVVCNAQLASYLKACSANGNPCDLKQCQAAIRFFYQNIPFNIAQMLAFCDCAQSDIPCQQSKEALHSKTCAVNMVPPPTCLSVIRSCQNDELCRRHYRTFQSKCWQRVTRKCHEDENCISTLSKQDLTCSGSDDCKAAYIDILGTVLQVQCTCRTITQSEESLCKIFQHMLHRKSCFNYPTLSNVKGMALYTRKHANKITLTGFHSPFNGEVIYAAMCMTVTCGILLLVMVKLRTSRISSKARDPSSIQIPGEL
The experiment in a line: cell-based or functional assay.

B1: Compound 2 (homodimer of two compounds including SEQ ID NO: 2) (Fc fusion)
chain: EAAGGPSVFLFPPKPKDTLMISRTPEVTCVVVDVSQEDPEVQFNWYVDGVEVHNAKTKPREEQFNSTYRVVSVLTVLHQDWLNGKEYKCKVSNKGLPSSIEKTISKAKGQPREPQVYTLPPSQEEMTKNQVSLTCLVKGFYPSDIAVEWESNGQPENNYKTTPPVLDSDGSFQLESRLTVDKSRWQEGNVFSCSVMHEALHNHYTQKSLSLSLGGGGGAPAPAPAPAPAPAPAPAPAPGGGGGDHCPLGPGRCCRLHTVRASLEDLGWADWVLSPREVQVTMCIGACPSQFRAANMHAQIKTSLHRLKPDTVPAPCCVPASYNPMVLIQKTDTGVSLQTYDDLLAKDCHCI
notes: Homodimer linked by at least one interchain disulfide bond between the GDF15 portions; also called homodimer of the Fc-GDF15 Compound 1
In experiment [1], B1 showed a Kd of 8.3 nM, a koff of 0.00871 s⁻¹ and a kon of 1.05e+06 M⁻¹ s⁻¹. Moreover, in experiment [2], the “EC50 of ERK1/2 phosphorylation (AlphaLISA pERK1/2) in HEK293 cells expressing human GFRAL and human RET51” value is 86.2 pM.

B2: Mature human GDF15 (homodimer of two compounds including SEQ ID NO: 1) (ligand)
chain: ARNGDHCPLGPGRCCRLHTVRASLEDLGWADWVLSPREVQVTMCIGACPSQFRAANMHAQIKTSLHRLKPDTVPAPCCVPASYNPMVLIQKTDTGVSLQTYDDLLAKDCHCI
Regarding B2, the “EC50 of ERK1/2 phosphorylation (AlphaLISA pERK1/2) in HEK293 cells expressing human GFRAL and human RET51” value in experiment [2] is 27.9 pM.
